B1: GpH7-A5/GpH7-B3 variant H268_13S/GpL16-k0 (antibody, human IgG1, kappa)
heavy 1: not shown
heavy 2: not shown
light: DIVMTQSPLSLPVTPGEPASISCQASESLVHSNRNTYLHWYLQKPGQSPQLLIYKVSNRFSGVPDRFSGSGSGTDFTLKISRVEAEDVGVYYCSQNTHVPPTFGQGTKVEIERTVAAPSVFIFPPSDEQLKSGTASVVCLLNNFYPREAKVQWKVDNALQSGNSQESVTEQDSKDSTYSLSSTLTLSKADYEKHKVYACEVTHQGLSSPVTKSFNRGEC
B2: GpH7-A5/GpH7-B3 variant H268_18N/GpL16-k0 (antibody, human IgG1, kappa)
heavy 1: not shown
heavy 2: not shown
light: DIVMTQSPLSLPVTPGEPASISCQASESLVHSNRNTYLHWYLQKPGQSPQLLIYKVSNRFSGVPDRFSGSGSGTDFTLKISRVEAEDVGVYYCSQNTHVPPTFGQGTKVEIERTVAAPSVFIFPPSDEQLKSGTASVVCLLNNFYPREAKVQWKVDNALQSGNSQESVTEQDSKDSTYSLSSTLTLSKADYEKHKVYACEVTHQGLSSPVTKSFNRGEC
B3: GpH7-A5/GpH7-B3 variant H268_20W/GpL16-k0 (antibody, human IgG1, kappa)
heavy 1: not shown
heavy 2: not shown
light: DIVMTQSPLSLPVTPGEPASISCQASESLVHSNRNTYLHWYLQKPGQSPQLLIYKVSNRFSGVPDRFSGSGSGTDFTLKISRVEAEDVGVYYCSQNTHVPPTFGQGTKVEIERTVAAPSVFIFPPSDEQLKSGTASVVCLLNNFYPREAKVQWKVDNALQSGNSQESVTEQDSKDSTYSLSSTLTLSKADYEKHKVYACEVTHQGLSSPVTKSFNRGEC
B4: GpH7-A5/GpH7-B3 variant L234_01G/GpL16-k0 (antibody, human IgG1, kappa)
heavy 1: not shown
heavy 2: not shown
light: DIVMTQSPLSLPVTPGEPASISCQASESLVHSNRNTYLHWYLQKPGQSPQLLIYKVSNRFSGVPDRFSGSGSGTDFTLKISRVEAEDVGVYYCSQNTHVPPTFGQGTKVEIERTVAAPSVFIFPPSDEQLKSGTASVVCLLNNFYPREAKVQWKVDNALQSGNSQESVTEQDSKDSTYSLSSTLTLSKADYEKHKVYACEVTHQGLSSPVTKSFNRGEC
B5: GpH7-A5/GpH7-B3 variant L234_02A/GpL16-k0 (antibody, human IgG1, kappa)
heavy 1: not shown
heavy 2: not shown
light: DIVMTQSPLSLPVTPGEPASISCQASESLVHSNRNTYLHWYLQKPGQSPQLLIYKVSNRFSGVPDRFSGSGSGTDFTLKISRVEAEDVGVYYCSQNTHVPPTFGQGTKVEIERTVAAPSVFIFPPSDEQLKSGTASVVCLLNNFYPREAKVQWKVDNALQSGNSQESVTEQDSKDSTYSLSSTLTLSKADYEKHKVYACEVTHQGLSSPVTKSFNRGEC
B6: GpH7-A5/GpH7-B3 variant H268_19Q/GpL16-k0 (antibody, human IgG1, kappa)
heavy 1: not shown
heavy 2: not shown
light: DIVMTQSPLSLPVTPGEPASISCQASESLVHSNRNTYLHWYLQKPGQSPQLLIYKVSNRFSGVPDRFSGSGSGTDFTLKISRVEAEDVGVYYCSQNTHVPPTFGQGTKVEIERTVAAPSVFIFPPSDEQLKSGTASVVCLLNNFYPREAKVQWKVDNALQSGNSQESVTEQDSKDSTYSLSSTLTLSKADYEKHKVYACEVTHQGLSSPVTKSFNRGEC
B7: GpH7-A5/GpH7-B3 variant H268_15Y/GpL16-k0 (antibody, human IgG1, kappa)
heavy 1: not shown
heavy 2: not shown
light: DIVMTQSPLSLPVTPGEPASISCQASESLVHSNRNTYLHWYLQKPGQSPQLLIYKVSNRFSGVPDRFSGSGSGTDFTLKISRVEAEDVGVYYCSQNTHVPPTFGQGTKVEIERTVAAPSVFIFPPSDEQLKSGTASVVCLLNNFYPREAKVQWKVDNALQSGNSQESVTEQDSKDSTYSLSSTLTLSKADYEKHKVYACEVTHQGLSSPVTKSFNRGEC

Experiments:
Assay in all cases: SPR, vs GpH7-A5/GpH7-B3/GpL16-k0 =100
[1] = molecular target: T1, FcγRIa extracellular domain, His-tagged (human, UniProt P12314 16-292)
T1 construct: extracellular domain; also called 1a

[2] = molecular target: T2, FcγRIIa(R) extracellular domain, His-tagged (human, UniProt P12318 34-217)
T2 construct: extracellular domain; also called 2aR
T2 sequence: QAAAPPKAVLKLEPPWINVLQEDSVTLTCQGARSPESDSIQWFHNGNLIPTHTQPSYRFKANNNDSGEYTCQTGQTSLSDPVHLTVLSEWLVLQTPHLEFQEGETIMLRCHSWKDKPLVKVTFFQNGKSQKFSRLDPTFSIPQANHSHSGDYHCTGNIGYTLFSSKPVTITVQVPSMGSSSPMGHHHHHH

[3] = molecular target: T3, FcγRIIa(H) extracellular domain, His-tagged (human, UniProt P12318 34-217)
T3 construct: extracellular domain; also called 2aH
T3 sequence: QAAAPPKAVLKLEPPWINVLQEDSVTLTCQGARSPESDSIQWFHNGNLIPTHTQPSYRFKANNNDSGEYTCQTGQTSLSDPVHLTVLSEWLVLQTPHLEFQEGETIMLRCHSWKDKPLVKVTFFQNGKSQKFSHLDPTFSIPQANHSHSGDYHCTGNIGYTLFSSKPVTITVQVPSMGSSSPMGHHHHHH

[4] = molecular target: T4, FcγRIIb extracellular domain, His-tagged (human, UniProt P31994 43-217)
T4 construct: extracellular domain; also called 2b
T4 sequence: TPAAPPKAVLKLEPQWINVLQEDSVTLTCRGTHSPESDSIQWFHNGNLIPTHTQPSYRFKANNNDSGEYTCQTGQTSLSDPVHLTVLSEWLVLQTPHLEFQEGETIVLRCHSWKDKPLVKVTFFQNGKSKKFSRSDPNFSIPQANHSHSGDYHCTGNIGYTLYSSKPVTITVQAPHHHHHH

[5] = molecular target: T5, FcγRIIIa extracellular domain, His-tagged (human, UniProt P08637 17-208)
T5 construct: extracellular domain; also called 3a
T5 sequence (P08637 other isoform, or with tags, fused parts or gaps): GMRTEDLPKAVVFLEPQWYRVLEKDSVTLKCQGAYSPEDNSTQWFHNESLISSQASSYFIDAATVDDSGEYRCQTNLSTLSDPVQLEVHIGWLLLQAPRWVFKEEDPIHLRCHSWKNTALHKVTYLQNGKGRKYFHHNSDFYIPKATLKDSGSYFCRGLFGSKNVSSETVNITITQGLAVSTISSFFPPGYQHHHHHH

T1 sequence (P12314 other isoform, or with tags, fused parts or gaps): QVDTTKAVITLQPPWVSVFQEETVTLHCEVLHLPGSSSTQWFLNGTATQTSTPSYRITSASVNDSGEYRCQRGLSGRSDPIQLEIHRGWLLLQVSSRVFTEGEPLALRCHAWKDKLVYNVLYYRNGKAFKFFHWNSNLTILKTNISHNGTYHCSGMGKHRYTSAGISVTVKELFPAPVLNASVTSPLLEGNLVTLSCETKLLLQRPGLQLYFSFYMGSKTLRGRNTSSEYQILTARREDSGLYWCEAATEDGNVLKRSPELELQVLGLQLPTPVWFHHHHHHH

Binder | He/Con 1a [1] | He/Con 2aR [2] | He/Con 2aH [3] | He/Con 2b [4] | He/Con 3a [5]
B1 | 106 % of control | 137 % of control | 114 % of control | 168 % of control | 121 % of control
B2 | 104 % of control | 138 % of control | 113 % of control | 164 % of control | 103 % of control
B3 | 103 % of control | 122 % of control | 96.9 % of control | 117 % of control | 82 % of control
B4 | 99.2 % of control | 72.4 % of control | 84.1 % of control | 57.8 % of control | 55.8 % of control
B5 | 101 % of control | 92.5 % of control | 90.1 % of control | 74.1 % of control | 69.7 % of control
B6 | 104 % of control | 128 % of control | 104 % of control | 140 % of control | 113 % of control
B7 | 104 % of control | 118 % of control | 113 % of control | 112 % of control | 96.5 % of control

Source: US20260167699A1 (Chugai, published 2026)
